# T1: Recombinant mouse sclerostin (mouse, UniProt Q99P68 24-211)
# T1 sequence: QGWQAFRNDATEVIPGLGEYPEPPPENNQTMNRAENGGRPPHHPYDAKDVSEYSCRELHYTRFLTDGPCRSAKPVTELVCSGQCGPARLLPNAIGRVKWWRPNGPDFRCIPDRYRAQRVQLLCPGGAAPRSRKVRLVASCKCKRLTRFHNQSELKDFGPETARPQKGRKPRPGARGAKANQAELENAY
# B1: mabB//mabA_pH3-BS01 (bispecific antibody, human IgG1, kappa)
# heavy 1: QVQLVQSGAEVKKPGASVKVSCKVSGFPIKHHFQHWVRQAPGKGLEWMGWSDPEIGDTEYASKFQGRVTMTEDTSTDTAYMELSSLRSEDTAVYYCATGHTTYKFDFWGQGTTVTVSSASTKGPSVFPLAPSSRSTSESTAALGCLVKDYFPEPVTVSWNSGALTSGVHTFPAVLQSSGLYSLSSVVTVPSSSLGTKTYTCNVDHKPSNTKVDKRVEPKSCDKTHTCPPCPAPELLGGPSVFLFPPKPKDTLMISRTPEVTCVVVDVSQEDPEVQFNWYVDGVEVHNAKTKPREEQFNSTYRVVSVLTVLHQDWLNGKEYKCKVSNKGLPSSIEKTISKAKGQPREPQVYTLPPSREEMTKNQVSLTCLVKGFYPSDIAVEWESNGQPENNYKTTPPYLDSDGSFFLYSKLTVDKSRWQQGNVFSCSVMHEALHNHYTQESLSLSP
# light 1: DIQMTQSPSSLSASVGDRVTITCKASQDVHTAVAWYQQKPGKAPKLLIYWASTRWTGVPSRFSGSGSGTDFTLTISSLQPEDFATYYCQQYSDYHWTFGGGTKVEIKRTVAAPSVFIFPPSDEQLKSGTASVVCLLNNFYPREAKVQWKVDNALQSGNSQESVTEQDSKDSTYSLSSTLTLSKADYEKHKVYACEVTHQGLSSPVTKSFNRGEC
# heavy 2: EVQLVQSGAEVKKPGASVKVSCKASGYTFTDYNMHWVRQAPGQGLEWMGEINPHSGHAGYNQKFKGRVTMTTDTSTSTAYMELRSLRSDDTAVYYCARLHYDDIHDDWYFDVWGQGTTVTVSSASTKGPSVFPLAPSSRSTSESTAALGCLVKDYFPEPVTVSWNSGALTSGVHTFPAVLQSSGLYSLSSVVTVPSSSLGTKTYTCNVDHKPSNTKVDKRVEPKSCDKTHTCPPCPAPELLGGPSVFLFPPKPKDTLMISRTPEVTCVVVDVSQEDPEVQFNWYVDGVEVHNAKTKPREEQFNSTYRVVSVLTVLHQDWLNGKEYKCKVSNKGLPSSIEKTISKAKGQPREPQVYTLPPSRKEMTKNQVSLTCLVKGFYPSDIAVEWESNGQPENNYKTTPPYLDSDGSFFLYSKLTVDKSRWQQGNVFSCSVMHEALHNHYTQKSLSLSP
# light 2: not shown
# B2: mabB//mabA_NpH3-BS01 (bispecific antibody, human IgG1, kappa)
# heavy 1: QVQLVQSGAEVKKPGASVKVSCKVSGFPIKHHFQHWVRQAPGKGLEWMGWSDPEIGDTEYASKFQGRVTMTEDTSTDTAYMELSSLRSEDTAVYYCATGDTTYKFDFWGQGTTVTVSSASTKGPSVFPLAPSSRSTSESTAALGCLVKDYFPEPVTVSWNSGALTSGVHTFPAVLQSSGLYSLSSVVTVPSSSLGTKTYTCNVDHKPSNTKVDKRVEPKSCDKTHTCPPCPAPELLGGPSVFLFPPKPKDTLMISRTPEVTCVVVDVSQEDPEVQFNWYVDGVEVHNAKTKPREEQFNSTYRVVSVLTVLHQDWLNGKEYKCKVSNKGLPSSIEKTISKAKGQPREPQVYTLPPSREEMTKNQVSLTCLVKGFYPSDIAVEWESNGQPENNYKTTPPYLDSDGSFFLYSKLTVDKSRWQQGNVFSCSVMHEALHNHYTQESLSLSP
# light 1: DIQMTQSPSSLSASVGDRVTITCKASQDVHTAVAWYQQKPGKAPKLLIYWASTRWTGVPSRFSGSGSGTDFTLTISSLQPEDFATYYCQQYHDYPWTFGGGTKVEIKRTVAAPSVFIFPPSDEQLKSGTASVVCLLNNFYPREAKVQWKVDNALQSGNSQESVTEQDSKDSTYSLSSTLTLSKADYEKHKVYACEVTHQGLSSPVTKSFNRGEC
# heavy 2: EVQLVQSGAEVKKPGASVKVSCKASGYTFTDYNMHWVRQAPGQGLEWMGEINPNSGGAGYNQKFKGRVTMTTDTSTSTAYMELRSLRSDDTAVYYCARLGYDDIYDDWYFDVWGQGTTVTVSSASTKGPSVFPLAPSSRSTSESTAALGCLVKDYFPEPVTVSWNSGALTSGVHTFPAVLQSSGLYSLSSVVTVPSSSLGTKTYTCNVDHKPSNTKVDKRVEPKSCDKTHTCPPCPAPELLGGPSVFLFPPKPKDTLMISRTPEVTCVVVDVSQEDPEVQFNWYVDGVEVHNAKTKPREEQFNSTYRVVSVLTVLHQDWLNGKEYKCKVSNKGLPSSIEKTISKAKGQPREPQVYTLPPSRKEMTKNQVSLTCLVKGFYPSDIAVEWESNGQPENNYKTTPPYLDSDGSFFLYSKLTVDKSRWQQGNVFSCSVMHEALHNHYTQKSLSLSP
# light 2: not shown
# B3: mabA_NpH3-SG2 (antibody, human IgG2, kappa, V domains shown)
# VH: EVQLVQSGAEVKKPGASVKVSCKASGYTFTDYNMHWVRQAPGQGLEWMGEINPNSGGAGYNQKFKGRVTMTTDTSTSTAYMELRSLRSDDTAVYYCARLGYDDIYDDWYFDVWGQGTTVTVSS
# VL: DIQMTQSPSSLSASVGDRVTITCRASQDISNYLNWYQQKPGKAPKLLIYYHSRLLSGVPSRFSGSGSGTDFTLTISSLQPEDFATYYCHQGDTLPYTFGGGTKVEIKR
# B4: mabB//mabA_pH1-BS01 (bispecific antibody, human IgG1, kappa)
# heavy 1: QVQLVQSGAEVKKPGASVKVSCKVSGFPIKHHFQHWVRQAPGKGLEWMGWSDPEIGDTEYASKFQGRVTMTEDTSTDTAYMELSSLRSEDTAVYYCATGDTTYKFDFWGQGTTVTVSSASTKGPSVFPLAPSSRSTSESTAALGCLVKDYFPEPVTVSWNSGALTSGVHTFPAVLQSSGLYSLSSVVTVPSSSLGTKTYTCNVDHKPSNTKVDKRVEPKSCDKTHTCPPCPAPELLGGPSVFLFPPKPKDTLMISRTPEVTCVVVDVSQEDPEVQFNWYVDGVEVHNAKTKPREEQFNSTYRVVSVLTVLHQDWLNGKEYKCKVSNKGLPSSIEKTISKAKGQPREPQVYTLPPSREEMTKNQVSLTCLVKGFYPSDIAVEWESNGQPENNYKTTPPYLDSDGSFFLYSKLTVDKSRWQQGNVFSCSVMHEALHNHYTQESLSLSP
# light 1: DIQMTQSPSSLSASVGDRVTITCKASQDVHTAVAWYQQKPGKAPKLLIYWASTRWTGVPSRFSGSGSGTDFTLTISSLQPEDFATYYCQQYSDYHWTFGGGTKVEIKRTVAAPSVFIFPPSDEQLKSGTASVVCLLNNFYPREAKVQWKVDNALQSGNSQESVTEQDSKDSTYSLSSTLTLSKADYEKHKVYACEVTHQGLSSPVTKSFNRGEC
# heavy 2: EVQLVQSGAEVKKPGASVKVSCKASGYTFTDYNMHWVRQAPGQGLEWMGEINPHSGHAGYNQKFKGRVTMTTDTSTSTAYMELRSLRSDDTAVYYCARLHYDDIHDDWYFDVWGQGTTVTVSSASTKGPSVFPLAPSSRSTSESTAALGCLVKDYFPEPVTVSWNSGALTSGVHTFPAVLQSSGLYSLSSVVTVPSSSLGTKTYTCNVDHKPSNTKVDKRVEPKSCDKTHTCPPCPAPELLGGPSVFLFPPKPKDTLMISRTPEVTCVVVDVSQEDPEVQFNWYVDGVEVHNAKTKPREEQFNSTYRVVSVLTVLHQDWLNGKEYKCKVSNKGLPSSIEKTISKAKGQPREPQVYTLPPSRKEMTKNQVSLTCLVKGFYPSDIAVEWESNGQPENNYKTTPPYLDSDGSFFLYSKLTVDKSRWQQGNVFSCSVMHEALHNHYTQKSLSLSP
# light 2: not shown
# B5: mabA_pH3 (antibody, V domains shown)
# VH: EVQLVQSGAEVKKPGASVKVSCKASGYTFTDYNMHWVRQAPGQGLEWMGEINPHSGHAGYNQKFKGRVTMTTDTSTSTAYMELRSLRSDDTAVYYCARLHYDDIHDDWYFDVWGQGTTVTVSS
# VL: DIQMTQSPSSLSASVGDRVTITCRASHDISNYLNWYQQKPGKAPKLLIYYTSRLLSGVPSRFSGSGSGTDFTLTISSLQPEDFATYYCQQGDTLPYTFGGGTKVEIK
# B6: mabB//mabA_pH3 (bispecific antibody, V domains shown)
# VH 1: QVQLVQSGAEVKKPGASVKVSCKVSGFPIKHHFQHWVRQAPGKGLEWMGWSDPEIGDTEYASKFQGRVTMTEDTSTDTAYMELSSLRSEDTAVYYCATGHTTYKFDFWGQGTTVTVSS
# VL 1: DIQMTQSPSSLSASVGDRVTITCKASQDVHTAVAWYQQKPGKAPKLLIYWASTRWTGVPSRFSGSGSGTDFTLTISSLQPEDFATYYCQQYSDYHWTFGGGTKVEIK
# VH 2: EVQLVQSGAEVKKPGASVKVSCKASGYTFTDYNMHWVRQAPGQGLEWMGEINPHSGHAGYNQKFKGRVTMTTDTSTSTAYMELRSLRSDDTAVYYCARLHYDDIHDDWYFDVWGQGTTVTVSS
# VL 2: DIQMTQSPSSLSASVGDRVTITCRASHDIHNYLNWYQQKPGKAPKLLIYYTSRLLSGVPSRFSGSGSGTDFTLTISSLQPEDFATYYCQQGDTLPYTFGGGTKVEIK
# notes: Biparatopic
# B7: mabB//mabA_pH1 (bispecific antibody, V domains shown)
# VH 1: QVQLVQSGAEVKKPGASVKVSCKVSGFPIKHHFQHWVRQAPGKGLEWMGWSDPEIGDTEYASKFQGRVTMTEDTSTDTAYMELSSLRSEDTAVYYCATGDTTYKFDFWGQGTTVTVSS
# VL 1: DIQMTQSPSSLSASVGDRVTITCKASQDVHTAVAWYQQKPGKAPKLLIYWASTRWTGVPSRFSGSGSGTDFTLTISSLQPEDFATYYCQQYSDYHWTFGGGTKVEIK
# VH 2: EVQLVQSGAEVKKPGASVKVSCKASGYTFTDYNMHWVRQAPGQGLEWMGEINPHSGHAGYNQKFKGRVTMTTDTSTSTAYMELRSLRSDDTAVYYCARLHYDDIHDDWYFDVWGQGTTVTVSS
# VL 2: DIQMTQSPSSLSASVGDRVTITCRASHDIHNYLNWYQQKPGKAPKLLIYYTSRLLSGVPSRFSGSGSGTDFTLTISSLQPEDFATYYCQQGDTLPYTFGGGTKVEIK
# notes: Biparatopic
# B8: mabB//mabA_pH2 (bispecific antibody, V domains shown)
# VH 1: QVQLVQSGAEVKKPGASVKVSCKVSGFPIKHHFQHWVRQAPGKGLEWMGWSDPEIGDTEYASKFQGRVTMTEDTSTDTAYMELSSLRSEDTAVYYCATGHTTYKFDFWGQGTTVTVSS
# VL 1: DIQMTQSPSSLSASVGDRVTITCKASQDVHTAVAWYQQKPGKAPKLLIYWASTRWTGVPSRFSGSGSGTDFTLTISSLQPEDFATYYCQQYSDYHWTFGGGTKVEIK
# VH 2: EVQLVQSGAEVKKPGASVKVSCKASGYTFTDYNMHWVRQAPGQGLEWMGEINPHSGHAGYNQKFKGRVTMTTDTSTSTAYMELRSLRSDDTAVYYCARLHYDDIHDDWYFDVWGQGTTVTVSS
# VL 2: DIQMTQSPSSLSASVGDRVTITCRASHDISNYLNWYQQKPGKAPKLLIYYTSRLLSGVPSRFSGSGSGTDFTLTISSLQPEDFATYYCQQGDTLPYTFGGGTKVEIK
# notes: Biparatopic
# Assays:
# [1] = target: T1, Recombinant mouse sclerostin; assay: cell-based or functional assay
# [2] = target: T1, Recombinant mouse sclerostin; assay: cell-based or functional assay; remark: listed apart in the source
# [3] = target: T1, Recombinant mouse sclerostin; assay: SPR (Biacore T200), 37 C, dissociation at pH 5.8 of complex formed at pH 7.4
# Method: The affinity of anti-sclerostin variants binding to human, cynomolgus monkey (cyno), rat, or mouse sclerostin at pH 7.4 and pH 5.8 were determined at 37 degrees C. using Biacore T200 instrument (GE Healthcare). Anti-human Fc (GE Healthcare) was immobilized onto all flow cells of a CM4 sensor chip using amine coupling kit (GE Healthcare). All antibodies and analytes were prepared in ACES pH7.4 or pH 5.8 buffer containing 20 mM ACES, 150 mM NaCl, 1.2 mM CaCl₂, 0.05% Tween 20, 0.005% NaN₃. Each antibody was captured onto the sensor surface by anti-human Fc. […] Sensor surface was regenerated each cycle with 3M MgCl₂.
# The pH dependent interaction assessment was determined by a modified Biacore assay. Briefly, an additional dissociation phase at pH5.8 was integrated into the Biacore assay immediately after dissociation phase at pH7.4. This is to assess the pH-dependent dissociation between antibody and antigen from the complexes formed at pH7.4. The dissociation rate at pH5.8 buffer was determined by processing and fitting data using Scrubber 2.0 (BioLogic Software) curve fitting software.
binder,measurement,setting,value
B1,"IC50 (read off the curve); Wnt1-induced TCF/LEF luciferase reporter in HEK293T cells, % Inhibition of mouse SOST",[1],~10 µg/mL
same,MFI of pHrodo-Red-labelled mouse sclerostin taken up into MDCK cells expressing human Fc gamma receptor IIB and human FcRn (flow cytometry),[2],2130 MFI
B2,MFI of pHrodo-Red-labelled mouse sclerostin taken up into MDCK cells expressing human Fc gamma receptor IIB and human FcRn (flow cytometry),[2],653 MFI
B3,MFI of pHrodo-Red-labelled mouse sclerostin taken up into MDCK cells expressing human Fc gamma receptor IIB and human FcRn (flow cytometry),[2],561 MFI
B4,"IC50 (read off the curve); Wnt1-induced TCF/LEF luciferase reporter in HEK293T cells, % Inhibition of mouse SOST",[1],~8 µg/mL
same,MFI of pHrodo-Red-labelled mouse sclerostin taken up into MDCK cells expressing human Fc gamma receptor IIB and human FcRn (flow cytometry),[2],2430 MFI
B5,koff,[3],0.000932 s⁻¹
B6,koff,[3],0.0516 s⁻¹
B7,koff,[3],0.0347 s⁻¹
B8,koff,[3],0.0186 s⁻¹

# Reference: patent publication US20190352387A1 (Chugai, published 2019)
